{"source": "paper PMC2860019", "about": "(Journal of molecular biology, 2010)", "key": {"[1]": {"biological_target": "Cp(-10)149d (recombinant HBV e-antigen, residues (-10)-149, C48A, C107A, G123A; dimer) (Hepatitis B virus) (UniProt P03147)", "experiment": "AUC"}, "AUC": {"biological_target": "the molecule itself", "experiment": "AUC"}}}
{"molecule": "Cp(-10)149d (recombinant HBV e-antigen, residues (-10)-149, C48A, C107A, G123A; dimer) (from UniProt P03147 1-149) (natural protein)", "values": [{"measurement": "stoichiometry N", "setting": "[1]", "value": 2}]}
{"molecule": "Cp149d (HBV capsid protein residues 1-149, C48A, C107A, G123A; dimer) (domain or fragment) MDIDPYKEFGATVELLSFLPSDFFPSVRDLLDTAAALYRDALESPEHASPHHTALRQAILCWGDLMTLATWVGTNLEDPASRDLVVSYVNTNVGLKFRQLLWFHISALTFGRETVLEYLVSFAVWIRTPPAYRPPNAPILSTLPETTVV", "values": [{"measurement": "stoichiometry N", "setting": "AUC", "value": 2}]}
